Assay [1] deals with native Hla in S. aureus 8325-4 supernatants (Staphylococcus aureus 8325-4 (NCTC 8325 …, UniProt Q2G1X0)). Kind of assay: far-Western, overlay or dot blot. The note with it: one partner purified.
The target of a further assay is Hlb (Staphylococcus aureus, strain , UniProt P09978). Kind of assay: ELISA. To be noted: both partners purified. Background: An ELISA detects its analyte on a solid surface through an enzyme-linked reagent.
In the next assay the target is HlgC (Staphylococcus aureus, strain , UniProt Q07227). Kind of assay: ELISA. To be noted: both partners purified.
Sequence of HlgC (Q07227 30-315): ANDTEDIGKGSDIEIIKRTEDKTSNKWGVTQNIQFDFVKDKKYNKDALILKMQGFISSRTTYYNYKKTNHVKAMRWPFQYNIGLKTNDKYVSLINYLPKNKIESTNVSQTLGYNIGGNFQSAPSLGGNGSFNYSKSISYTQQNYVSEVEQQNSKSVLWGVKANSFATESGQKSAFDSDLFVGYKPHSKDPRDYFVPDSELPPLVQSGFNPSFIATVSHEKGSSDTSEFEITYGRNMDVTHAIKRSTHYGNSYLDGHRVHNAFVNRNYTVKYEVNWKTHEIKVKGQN
The next assay has as its target LukF (Staphylococcus aureus, strain , UniProt Q5FBD2). Nature of the assay: ELISA. The note with it: both partners purified.
Another assay addresses LukE (Staphylococcus aureus, strain , UniProt O54081). Nature of the assay: ELISA. To be noted: both partners purified.
The next assay addresses LukD (Staphylococcus aureus, strain , UniProt O54082). Nature of the assay: ELISA. To be noted: both partners purified.
The next assay concerns the target HlgA (Staphylococcus aureus, strain , UniProt P0A074). Nature of the assay: ELISA. To be noted: both partners purified.
The next assay has as its target HlgB (Staphylococcus aureus, strain , UniProt P0A077). Nature of the assay: ELISA. To be noted: both partners purified.

Sequence of HlgA (P0A074 30-309): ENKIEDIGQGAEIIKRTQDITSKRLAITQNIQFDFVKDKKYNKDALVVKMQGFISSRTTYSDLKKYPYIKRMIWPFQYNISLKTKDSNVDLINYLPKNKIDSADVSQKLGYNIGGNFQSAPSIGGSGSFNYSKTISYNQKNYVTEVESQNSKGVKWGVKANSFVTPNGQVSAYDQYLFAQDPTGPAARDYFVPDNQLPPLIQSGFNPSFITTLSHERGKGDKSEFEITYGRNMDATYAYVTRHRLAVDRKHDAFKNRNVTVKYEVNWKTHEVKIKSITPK
Sequence of HlgB (P0A077 26-325): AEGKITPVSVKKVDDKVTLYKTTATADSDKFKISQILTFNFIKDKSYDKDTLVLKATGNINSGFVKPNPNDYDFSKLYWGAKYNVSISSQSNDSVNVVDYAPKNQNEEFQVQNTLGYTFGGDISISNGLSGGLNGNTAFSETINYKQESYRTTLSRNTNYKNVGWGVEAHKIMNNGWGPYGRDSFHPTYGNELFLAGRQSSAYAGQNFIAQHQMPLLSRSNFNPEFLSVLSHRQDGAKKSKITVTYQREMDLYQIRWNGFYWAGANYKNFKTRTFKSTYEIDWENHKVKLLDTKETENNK
Sequence of LukF (P31715 26-323): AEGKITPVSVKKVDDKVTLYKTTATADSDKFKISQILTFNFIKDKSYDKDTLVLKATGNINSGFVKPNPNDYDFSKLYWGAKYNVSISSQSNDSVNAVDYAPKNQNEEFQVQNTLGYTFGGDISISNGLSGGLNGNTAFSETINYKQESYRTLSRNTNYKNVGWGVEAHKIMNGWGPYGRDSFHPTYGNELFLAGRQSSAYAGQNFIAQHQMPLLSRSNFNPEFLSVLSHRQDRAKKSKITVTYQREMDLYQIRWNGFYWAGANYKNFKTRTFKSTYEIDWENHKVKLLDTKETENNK
Sequence of LukD (O54082 27-327): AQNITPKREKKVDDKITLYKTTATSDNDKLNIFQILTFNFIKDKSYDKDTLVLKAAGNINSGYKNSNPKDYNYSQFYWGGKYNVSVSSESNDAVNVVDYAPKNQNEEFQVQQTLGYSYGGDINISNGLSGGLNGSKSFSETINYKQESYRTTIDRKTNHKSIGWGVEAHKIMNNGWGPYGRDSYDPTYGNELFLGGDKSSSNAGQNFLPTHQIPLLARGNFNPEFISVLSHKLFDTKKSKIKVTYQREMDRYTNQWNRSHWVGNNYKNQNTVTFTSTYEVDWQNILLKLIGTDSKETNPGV
Sequence of Hlb (P09978 35-330): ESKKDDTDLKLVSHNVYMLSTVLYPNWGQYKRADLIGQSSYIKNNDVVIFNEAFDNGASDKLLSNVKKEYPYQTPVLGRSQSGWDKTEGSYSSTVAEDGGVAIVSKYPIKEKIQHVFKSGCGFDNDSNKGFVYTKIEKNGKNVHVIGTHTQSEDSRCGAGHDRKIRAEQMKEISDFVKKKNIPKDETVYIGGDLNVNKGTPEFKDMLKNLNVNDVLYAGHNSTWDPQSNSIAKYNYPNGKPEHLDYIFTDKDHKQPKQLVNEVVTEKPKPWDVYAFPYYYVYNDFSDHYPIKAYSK
Sequence of LukE (O54081 29-314): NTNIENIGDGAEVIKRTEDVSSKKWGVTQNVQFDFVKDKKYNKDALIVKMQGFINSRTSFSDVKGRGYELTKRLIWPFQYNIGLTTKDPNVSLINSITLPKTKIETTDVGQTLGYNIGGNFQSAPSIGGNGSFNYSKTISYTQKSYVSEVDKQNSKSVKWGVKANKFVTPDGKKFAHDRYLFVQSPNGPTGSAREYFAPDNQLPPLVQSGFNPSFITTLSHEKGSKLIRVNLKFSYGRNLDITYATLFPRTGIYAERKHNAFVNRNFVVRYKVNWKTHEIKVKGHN
Sequence of native Hla in S. aureus 8325-4 supernatants (Staphylococcus aureus 8325-4 (Q2G1X0 27-319): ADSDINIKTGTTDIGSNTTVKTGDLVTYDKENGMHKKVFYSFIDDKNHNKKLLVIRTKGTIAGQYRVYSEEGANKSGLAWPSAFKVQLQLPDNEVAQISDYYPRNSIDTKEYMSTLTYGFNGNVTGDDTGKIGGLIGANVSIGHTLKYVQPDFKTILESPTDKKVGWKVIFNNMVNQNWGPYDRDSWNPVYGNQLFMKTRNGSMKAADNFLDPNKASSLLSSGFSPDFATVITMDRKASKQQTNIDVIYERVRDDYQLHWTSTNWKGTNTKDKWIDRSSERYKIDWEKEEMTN

B1: YG1 human anti-Hla monoclonal antibody (antibody, V domains shown)
VH: QVQLVQSGAEMQKPGASVKVSCKVTGYALASLSLHWVRQTPGAGLEWLGGLDPGHGETIYAEKLQGRVVMTGDTSTDTAYMQLSSLTSEDTAIYYCASDWLRHGFEFWGQGTTVTVSS
VL: EIVLTQSPATLSVSPGDGATLSCRASQSVSGNLAWYQKKPGQAPRLLIYDTSIRAAGVPPRFSGSGSGTEFTLTISSLQSEDFAVYYCQQYHNLPPLTFGPGTKLEIK
notes: also called YG1 mAb; source: expressed and purified as a full-length human IgG1 antibody
With B1, the binding result was “binds” in assay [1]; “no binding (tested: 1 μg/ml)” with Hlb; “no binding (tested: 1 μg/ml)” in the assay with HlgC; “no binding (tested: 1 μg/ml)” with LukF; “no binding (tested: 1 μg/ml)” with LukE; “no binding (tested: 1 μg/ml)” in the assay with LukD. In addition, the binding result in the assay with HlgA and with HlgB was “no binding (tested: 1 μg/ml)” each time.

Values taken from publication PMC8319846 (Frontiers in Microbiology, 2021).
